Measurements as given in patent EP1870419A2, “Modulators of beta-amyloid peptide aggregation comprising D-amino acids” (Praecis Pharmaceuticals Incorporated, priority 1999, dated 2000).

Biological target: Aβ1-40 peptide (natural β-amyloid peptide, β-AP1-40)
Assay: cell-based or functional assay

Sequence of Aβ1-40 peptide (natural β-amyloid peptide, β-AP1-40) (peptide, as listed by the source limits assumed, form in doubt): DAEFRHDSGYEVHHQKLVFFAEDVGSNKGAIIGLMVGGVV

Question: What does the source list for “PPI 969: TFA·N-ethyl-(Gaffvl)-NH2 (peptide)”?
Answer: Nucleation assay Δlag, 1.25 µM compound (fold of control lag time): 3; Nucleation assay Δlag, 2.5 µM compound (fold of control lag time): > 5; Nucleation assay Δlag, 5 µM compound (fold of control lag time): > 5

Question: For “PPI 992: TFA·H-(lvffa)-isopropylamide (peptide)”, which Nucleation assay Δlag, 1.25 µM compound (fold of control lag time) is on record?
Answer: The Nucleation assay Δlag, 1.25 µM compound (fold of control lag time) was 1.

Question: And the Nucleation assay Δlag, 2.5 µM compound (fold of control lag time)?
Answer: The Nucleation assay Δlag, 2.5 µM compound (fold of control lag time) was 1.

Question: What about the Nucleation assay Δlag, 5 µM compound (fold of control lag time) of the same substance?
Answer: The Nucleation assay Δlag, 5 µM compound (fold of control lag time) was 3.

Question: How did the Nucleation assay Δlag, 0.3 µM compound (note *) (fold of control lag time) turn out when “PPI 1007: TFA·N,N-dimethyl-(lvffl)-NH2 (peptide)” was run?
Answer: The Nucleation assay Δlag, 0.3 µM compound (note *) (fold of control lag time) was 3.

Question: What about the Nucleation assay Δlag, 0.6 µM compound (note #) (fold of control lag time) of the same substance?
Answer: The Nucleation assay Δlag, 0.6 µM compound (note #) (fold of control lag time) was 1.5.

Question: What about the Nucleation assay Δlag, 1 µM compound (note *) (fold of control lag time) of the same substance?
Answer: Its Nucleation assay Δlag, 1 µM compound (note *) (fold of control lag time) is 4.

Question: What about the Nucleation assay Δlag, 1.25 µM compound (note #) (fold of control lag time) of the same substance?
Answer: Its Nucleation assay Δlag, 1.25 µM compound (note #) (fold of control lag time) is 1.5.

Question: What about the Nucleation assay Δlag, 2.5 µM compound (note #) (fold of control lag time) of the same substance?
Answer: The Nucleation assay Δlag, 2.5 µM compound (note #) (fold of control lag time) was 1.5.

Question: And the Nucleation assay Δlag, 3 µM compound (note *) (fold of control lag time)?
Answer: The Nucleation assay Δlag, 3 µM compound (note *) (fold of control lag time) was 4.

Question: Which results are given for PPI 1013: TFA·H-(Glvffl)-NH2 (peptide)?
Answer: Nucleation assay Δlag, 0.6 µM compound (note #) (fold of control lag time): 2; Nucleation assay Δlag, 1.25 µM compound (note #) (fold of control lag time): > 3; Nucleation assay Δlag, 2.5 µM compound (note #) (fold of control lag time): 2

Question: With “PPI 1125: 2 TFA·H-lvf-NH-NH-fvl-H (peptide)” as the substance, how does the Nucleation assay data (Δlag), 0.6 µM compound (note *) (fold of control lag time) read?
Answer: Its Nucleation assay data (Δlag), 0.6 µM compound (note *) (fold of control lag time) is 2.

Question: And the Nucleation assay data (Δlag), 1.25 µM compound (note *) (fold of control lag time)?
Answer: The Nucleation assay data (Δlag), 1.25 µM compound (note *) (fold of control lag time) was > 2.5.

Question: And the Nucleation assay data (Δlag), 2.5 µM compound (note *) (fold of control lag time)?
Answer: Its Nucleation assay data (Δlag), 2.5 µM compound (note *) (fold of control lag time) is > 2.5.

Question: For “PPI 1320: TFA·H-(lf-[F5]f-vl)-NH2 (peptide)”, which Nucleation assay data (Δlag), 0.3 µM compound (fold of control lag time) is on record?
Answer: Its Nucleation assay data (Δlag), 0.3 µM compound (fold of control lag time) is 1.

Question: What about the Nucleation assay data (Δlag), 1 µM compound (fold of control lag time) of the same substance?
Answer: The Nucleation assay data (Δlag), 1 µM compound (fold of control lag time) was 3.

Question: What about the Nucleation assay data (Δlag), 3 µM compound (fold of control lag time) of the same substance?
Answer: The Nucleation assay data (Δlag), 3 µM compound (fold of control lag time) was > 5.

Question: With “PPI-1019: TFA•N-methyl-(lvffl)-NH2 (peptide)” as the substance, how does the Nucleation assay data (Δlag), 0.6 µM compound (note *) (fold of control lag time) read?
Answer: The Nucleation assay data (Δlag), 0.6 µM compound (note *) (fold of control lag time) was 2.

Question: What about the Nucleation assay data (Δlag), 1.25 µM compound (note *) (fold of control lag time) of the same substance?
Answer: The Nucleation assay data (Δlag), 1.25 µM compound (note *) (fold of control lag time) was > 2.5.

Question: What about the Nucleation assay data (Δlag), 2.5 µM compound (note *) (fold of control lag time) of the same substance?
Answer: Its Nucleation assay data (Δlag), 2.5 µM compound (note *) (fold of control lag time) is > 2.5.

Question: Which results are given for “PPI-1318: TFA·H-(lf-D-Cha-vl)-NH2 (peptide)”?
Answer: Nucleation assay data (Δlag), 0.3 µM compound (fold of control lag time): 1; Nucleation assay data (Δlag), 1 µM compound (fold of control lag time): 2; Nucleation assay data (Δlag), 3 µM compound (fold of control lag time): > 5
